Assay results: PMC6700787, “Sharpin suppresses β1-integrin activation by complexing with the β1 tail and kindlin-1” (Cell Communication and Signaling : CCS, 2019)

T1: GST-fused kindlin-1 (Homo sapiens (Human), UniProt Q9BQL6)
T1 chain: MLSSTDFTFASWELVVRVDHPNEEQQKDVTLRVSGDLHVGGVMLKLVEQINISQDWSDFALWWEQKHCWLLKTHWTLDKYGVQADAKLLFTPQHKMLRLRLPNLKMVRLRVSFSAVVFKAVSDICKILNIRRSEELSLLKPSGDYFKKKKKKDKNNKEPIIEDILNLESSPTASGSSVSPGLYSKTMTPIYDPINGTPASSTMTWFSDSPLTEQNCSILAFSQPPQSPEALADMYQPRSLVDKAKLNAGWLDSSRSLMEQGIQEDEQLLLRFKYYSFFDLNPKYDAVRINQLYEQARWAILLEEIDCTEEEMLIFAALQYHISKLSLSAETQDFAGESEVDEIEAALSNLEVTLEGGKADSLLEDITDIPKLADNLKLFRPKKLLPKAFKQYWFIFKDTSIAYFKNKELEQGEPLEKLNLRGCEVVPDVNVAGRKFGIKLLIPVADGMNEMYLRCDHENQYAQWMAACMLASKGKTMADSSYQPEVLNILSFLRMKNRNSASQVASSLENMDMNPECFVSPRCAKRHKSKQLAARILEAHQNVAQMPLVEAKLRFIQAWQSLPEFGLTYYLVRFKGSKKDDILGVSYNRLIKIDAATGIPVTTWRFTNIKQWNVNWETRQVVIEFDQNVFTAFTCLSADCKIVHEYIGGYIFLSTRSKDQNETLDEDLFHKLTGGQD

T2: GST-fused integrin β1 cytoplasmic tail (Homo sapiens (Human), UniProt P05556)
T2 chain: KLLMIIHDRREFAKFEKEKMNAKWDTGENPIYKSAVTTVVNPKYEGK

T3: N-terminus of sharpin (SH-N, 1-217 amino acids), his-tagged (UniProt Q9H0F6 1-217)
T3 construct: also called His-SH-N; N-terminal fragment of sharpin; source: E. coli Rosetta DE3, purified (Ni-NTA agarose)
T3 sequence (looked up): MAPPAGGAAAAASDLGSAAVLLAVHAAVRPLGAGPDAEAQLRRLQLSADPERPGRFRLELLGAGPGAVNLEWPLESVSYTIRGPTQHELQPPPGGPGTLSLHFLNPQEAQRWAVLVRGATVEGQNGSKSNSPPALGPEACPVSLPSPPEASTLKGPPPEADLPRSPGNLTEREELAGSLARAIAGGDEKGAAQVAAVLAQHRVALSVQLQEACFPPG


Assays:
GST-fused kindlin-1 = target: T1, GST-fused kindlin-1; assay: GST pull-down
[1] = target: T2, GST-fused integrin β1 cytoplasmic tail; assay: GST pull-down
[2] = target: T3, N-terminus of sharpin (SH-N, 1-217 …); assay: SPR; Biacore 8K; N-terminal fragment of sharpin coupled to a CM5 chip; integrin β1 CT or β3 CT injected at 2.5, 5, 10, 20 and 40 μM; room temperature, PBS; conditions: both partners purified

binding result (GST-fused kindlin-1) | binding result [1] | Kd [2] [µM] | Binder
binds | no binding |  | C-terminus of sharpin (SH-C, 217-387 amino acids), his-tagged (protein) GPIRLQVTLEDAASAASAASSAHVALQVHPHCTVAALQEQVFSELGFPPAVQRWVIGRCLCVPERSLASYGVRQDGDPAFLYLLSAPREAPATGPSPQHPQKMDGELGRLFPPSLGLPPGPQPAASSLPSPLQPSWSCPSCTFINAPDRPGCEMCSTQRPCTWDPLAAAST
 |  | 40 | KLLMIIHDRREFAKFEKEKMNAKWDTGENPIYKSAVTTVVNPKYEGK (domain or fragment, UniProt P05556 752-798, looked up, Integrin β1 cytoplasmic tail (CT); 15N-labelled in the HSQC experiment, unlabelled analyte in SPR; The only vector named for the tails is pGST-1; also called ^15N-labeled β1 CT; the integrin β1 CT protein) [integrin β1 CT protein (NMR and SPR samples)]
 | binds |  | his-tagged kindlin-1 (protein) MLSSTDFTFASWELVVRVDHPNEEQQKDVTLRVSGDLHVGGVMLKLVEQINISQDWSDFALWWEQKHCWLLKTHWTLDKYGVQADAKLLFTPQHKMLRLRLPNLKMVRLRVSFSAVVFKAVSDICKILNIRRSEELSLLKPSGDYFKKKKKKDKNNKEPIIEDILNLESSPTASGSSVSPGLYSKTMTPIYDPINGTPASSTMTWFSDSPLTEQNCSILAFSQPPQSPEALADMYQPRSLVDKAKLNAGWLDSSRSLMEQGIQEDEQLLLRFKYYSFFDLNPKYDAVRINQLYEQARWAILLEEIDCTEEEMLIFAALQYHISKLSLSAETQDFAGESEVDEIEAALSNLEVTLEGGKADSLLEDITDIPKLADNLKLFRPKKLLPKAFKQYWFIFKDTSIAYFKNKELEQGEPLEKLNLRGCEVVPDVNVAGRKFGIKLLIPVADGMNEMYLRCDHENQYAQWMAACMLASKGKTMADSSYQPEVLNILSFLRMKNRNSASQVASSLENMDMNPECFVSPRCAKRHKSKQLAARILEAHQNVAQMPLVEAKLRFIQAWQSLPEFGLTYYLVRFKGSKKDDILGVSYNRLIKIDAATGIPVTTWRFTNIKQWNVNWETRQVVIEFDQNVFTAFTCLSADCKIVHEYIGGYIFLSTRSKDQNETLDEDLFHKLTGGQD
